The values below come from the DeepSol protein solubility set.

The nature of the data set: soluble on expression in E. coli; label from the status in PepcDB or PDB records.
“MHHHHHHSSGVDLGTENLYFQSMDVGIVALEIYFPSQYVDQAELEKYDGVDAGKYTIGLGQAKMGFCTDREDINSLCMTVVQNLMERNNLSYDCIGRLEVGTETIIDKSKSVKTNLMQLFEESGNTDIEGIDTTNACYGGTAAVFNAVNWIESSSWDGRYALVVAGDIAVYATGNARPTGGVGAVALLIGPNAPLIFERGLRGTHMQHAYDFYKPDMLSEYPIVDGKLSIQCYLSALDRCYSVYCKKIHAQWQKEGNDKDFTLNDFGFMIFHSPYCKLVQKSLARMLLNDFLNDQNRDKNSIYSGLEAFGDVKLEDTYFDRDVEKAFMKASSELFSQKTKASLLVSNQNGNMYTSSVYGSLASVLAQYSPQQLAGKRIGVFSYGSGLAATLYSLKVTQDATPGSALDKITASLCDLKSRLDSRTGVAPDVFAENMKLREDTHHLVNYIPQGSIDSLFEGTWYLVRVDEKHRRTYARRP”: the “soluble on expression in E. coli” value is “soluble”.
Next, “MGSDKIHHHHHHAQRGKRAMNRIDREVQETVFIPKGTWMAGGTVSYSEHDEGNLNFLVLKNVEGKGYNFGVSPYVGYFFRNNISAGMRFAYHRDYLDLKNFELNLGEDFNISLDNLYYLEHKYEVSGFLRTYMPIGRSKIFGLFNEARLTYGYGTGKNSTGTGATYDGSYQTAQNLQIGIAPGMTAFITDWSAVEVSVGVMGFDFKWIDQKTNQIEEGHQRVSSGNFKINLFSINIGMTFYL”: “not soluble”; “MAHHHHHHMYSSVRPYKILQKVKRNDNNSNSNSNNNSNSNSNSSSIRNPPNEAKKEPTEREDSGKKKPVEKKKKYEDLKYYECNRKSLSTKSQEAEGRDKITKYNNKTNQHADNNHVKKLQSEKVLKKKEDMLVTLLKKEQSSVHNKKIIIRHLPPTLSEDNFFESFPSNLKDELDYYYYVNGCVPKNQGGDITHSRMYLSFKDDLKTKEFIKTQHGKFFYDSNGGKFKAMVSFAPYQTIIHKNKLDEMNNTLESDAYFLKCCEEMNNPQEPVKKDDDNADLSNVIKEDGVILPPLVVALRKKLKNKKLK”: “not soluble”.
Regarding “MRLEECNILFELLTEIQDEAGSMEKIVHKTLQRLSQLLAADRCSMFICRSRNGIPEVATRLLNVTPTSKFEDNLVNPDKETVFPLDIGIAGWVAHTKKFFNIPDVKKNNHFSDYLDKKTGYTTVNMMAIPITQGKEVLAVVMALNKLNASEFSKEDEEVFKKYLNFISLVLRLEHHHHHH”, the “soluble on expression in E. coli” value is on record as “soluble”.
Next, “MENNTILHNYQDWLEHHKMPAGKKKTLVAAIELFSQQGYNGTSTAQIAEKAGISQATIFKYFKTKSDLLSEIMQPMIPELKRDFFPKLQTYTKLEEVVHFIVQDRFQFLTQNADLIKILIQEALVNVKLRKTLLTNIQLTISKDFMAYWQTLKQINPQINPNLSGIEVIRTNVGLLFAYFTQRFILNIPTPSEQKDLLLIEKQILTLLILDTH”: “not soluble”; “MAMNVTEIVLKKPVTAHNEMLHVLELREPTYDEIEALGFPFIISGEGSIKLDSQVALKYIPLLAGIPCSSAAQMAKLDIFKTSMQILRFFTQSETGSTSGNDSTMLPGSGN”: “not soluble”; “MSLEILTAGPMLTVQDAGRFGLRHMGVSPAGPIDRAAMALANALVGNDPGAAALEFAGPAGRFRCDRPVRFAVAGADCPLRIDARTVSPGESHRLNPGETLTVGVPEGAVWAYLAFSGAIASPEVLGSRATHLRSGVGGRALGAGDRLPLGEDDPEAPCLRPGLRLEAAAPFRETGPIRLILGPQDDHFAPEVIARLTGCDFTVTPQRDRMAMVLGGVELPAERGHDIVSDGTVPGSVQVPGSGTPLVLLAESQTTGGYPKIGTVASVDLARLAQMPVGARFRFALISAREGEDLWIARQAR”: “not soluble”.
For the sequence “MGSDKIHHHHHHMIAVLDMGTNSFILLVVSEKGETILEEVHEVGIASGNLEKAKEVFKECVEKAEKMGAELHIFGTAFFRKHPDIFQQITGGRGEILPEEKEAYYSYISVAKDFGKKDILVADLGGGSLELAWKDGYVSLELGTHVLNRTFSLTLPYIEPVDGIVEYVMKRLPEVKKDELFGVGGSFVALAALMKGKWDLEILHGSVLKLEEVEKLVDKIKRMSFEDVKNLKVLPEGREKTILAGGIVTIALLRKYSPRMTVSTRGYRYGIVWEILEKRWRARGDSNPQPPDPQSGALSN”, the “soluble on expression in E. coli” value is on record as “not soluble”.
For “MVMNRSSPHGGGVAAGDGGGRPLRPGHFPLRPLRGHLPPGGRIFALALAVALPVQAETLASRAPETVAITLYRDGDGPFQAMSPWVRQQARDKGLVLVTETRTVDLPAGRHTLRFDGVAEGLIPQSAAVEGLPGKAVERNYDYALLSPGTLVERSLGQPIKVVRTNRKTGRQQTVDATLIQGPYGLMVRTAEGVEALGCSGGAERLVLGAVPEGLTDKPSLSTIVEVPAPTRAKLTVSYLALGVNWQADYVARIHPDGQRLDLTGWLTLVNSGGSQFADAKTQAVAGKLSRKPVRVDKGEARSIHRACWPMDTTHYGQEPPPPPAPPPPLPIPMMSAAPMARAGAEEIAVTGARAKLAEQSNLGDYKLYTLPEPVTLNARQTKQVAFLDQKDVAFQRLYAVEMDSYDDYDNADWPLIIPDVVLRLENKTANGLGKPLPSGALSAIETAGGRPTFAGEQAVRDVAVGEPLDLVIGRAMDVHARPRLVEERTLSKGRVRRTYELDLANAKTVPITVEIRHDPTAPYFKLVSEPQKHDIRQGQVAWRVTLPAGERRSFRYAVAFGR”, the “soluble on expression in E. coli” value was “not soluble”.
Turning to “GPGSMRRVVITGLGLVSPLAGDVEYSWKRLLEGKSGVRRITEFDVSDLSCQIAARIPVGDGTNGTYNADLHMESKEQRKVDAFIVYAIAAADQALADAEWFPKSDEDQICTGVLIGSGIGGIEGIVEAGYTLRDKGPRRISPFFIPGRLINLASGYVSIKYGLRGPNHSVVTACSTGAHAIGDAARLIALGDADVMLAGGTESPINRISLAGFSACRALSTCRNDDPERASRPYDVDRDGFVMGEGAAIVVLEELEHAKKRGARIYAEIIGYGLSGDAYHITAPSESGEGAQRSMMAALKRAQVNVSELDYINAHGTSTMADVIELAAVERVLGYYAPQVSMSSTKSSIGHLLGAAGAAEAIFCVLAIRDNIAPATLNLENPSIETKIDLVPHKPRERKIDTVLSNSFGFGGTNASLVMRRFSE”, the “soluble on expression in E. coli” value is “soluble”.
As for “MKKFALATIFALATTSAFAGFNGNNSQGGFQQAAPAAISVKQALSAADNSMITLVGNITQQIDDDEFWFTDGTGQIKIEIKKRVWNGLNVDSKDKVKIYGKLDNEVFEKAELDVLRIEKAE”, the “soluble on expression in E. coli” value is “not soluble”.
Next, “MAEKSFKYIILGGGVSAGYAAKEFANQGVQPGELAVISKEAVAPYERPALSKGYLFPEGAARLPGFHCCVGSGGEKLLPESYKQKGIELILSTEIVKADLSAKSLVSATGDVFKYQTLIIATGSTVLRLTDFGVKGADSKNILYLREIDDADKLVEAIKAKKGGKAVVVGGGYIGLELSAVLRINNLDVTMVFPEPWCMPRLFTADIAAFYETYYTNKGVKIIKGTVASGFTAQPNGEVKEVQLKDGRTLEADIVIVGVGAKPLTSLFKGQVEEDKGGIKTDAFFKTSVPDVYAVGDVATFPLKMYGDVRRVEHVDHSRKSAEQAVKAIKAAEGGAAVEEYDYLPFFYSRSFDLSWQFYGDNVGDSVLFGDSNPSNPKPRFGAYWVQGGKVVGAFMEGGSGDENKALAKVAKARPSAESLDELVKQGISFAAKI”: “soluble”; “MAHHHHHHMAPLKTQAPSNRSLLGYPLRRAAAMEMLYGGICIQHLAQPPFPLRTIQSESLPPPSLQGERDDLELEVKDSTGNVMGYRLFPVNIGIRARTESVRVRSEDCYKRFLAQKHCAAAGVPLQFPAPSSITNSNCLATPRAASHFHPPSSSLSLFTRPADSQGGDVGRTTPADVAAYHPRAWRPYQMLKPMPHNWGPAVRSSGVRGPHMQLLQERIDKKGFGWKRKSRSLWQQDISTAGFRPKRYF”: “not soluble”; “MVNKDVKQTTAFGAPVWDDNNVITAGPRGPVLLQSTWFLEKLAAFDRERIPERVVHAKGSGAYGTFTVTKDITKYTKAKIFSKVGKKTECFFRFSTVAGERGSADAVRDPRGFAMKYYTEEGNWDLVGNNTPVFFIRDAIKFPDFIHTQKRDPQTNLPNHDMVWDFWSNVPESLYQVTWVMSDRGIPKSFRHMDGFGSHTFSLINAKGERFWVKFHFHTMQGVKHLTNEEAAEIRKHDPDSNQRDLFDAIARGDYPKWKLSIQVMPEEDAKKYRFHPFDVTKIWYTQDYPLMEVGIVELNKNPENYFAEVEQAAFTPANVVPGIGYSPDRMLQGRLFSYGDTHRYRLGVNYPQIPVNKPRCPFHSSSRDGYMQNGYYGSLQNYTPSSLPGYKEDKSARDPKFNLAHIEKEFEVWNWDYRADDSDYYTQPGDYYRSLPADEKERLHDTIGESLAHVTHKEIVDKQLEHFKKADPKYAEGVKKALEKHQKMMKDMHGKDMHHTKKKK”: “soluble”.
With “MGSDKIHHHHHHAKSVATTEHLKRYTEAISHDSCQGRKPFSEGADRAVNYIAHQMKEVGLKPINGDSYFQQVNIISSRTRCPDPMVLKTPKGKIPLDWLEGYTAFSARIEPEIDIDNAELVFAGYGIVAPEYGKNDFEGIENPQDKVAVVIVNDPGLGSDNTDYFNGDIMTYYGRWMYKFEEGARQGLKGVLIIHEDRGAGYPWSVVRASAQSKMYVDSDSDAYHCPLNGWIQFNAAKQLLADNGYDIDQLIEQSKSPDFKPISLKSTVTVSMRNTFDRQQSPNVIGYIPGSGNTDESVIYLGHWDHLGYGAPINGDSIINGATDNAVAIAWMLEMARCFNVLKEKPRRNIVFLSPTCEETGFLGTKYYVEHPLFPIDKIAAVINLDVFPLWGENNDVTITGYGNSELDDTLAELAKKYNRYIMPDPDAYNGMFYRSDHFPFVQKGIPAMFAKGWNDNRKQGKEWAKEHIAHYWAETYHKPTDQTHPDTDDYSGLLQEVQLFFDLGYKLAQDTGYPKWKPKSEFANVLKR”, the “soluble on expression in E. coli” value is listed as “not soluble”.
As for “MSNIIKQLEQEQLKQNVPSFRPGDTLEVKVWVVEGSKRRLQAFEGVVIAIRNRGLHSAFTLRKVSNGVGVERVFQTHSPAVDSIAVKRKGAVRKAKLYYLRERSGKSARIKERLGALEHHHHHH”, the “soluble on expression in E. coli” value is “not soluble”.
In the case of “MGSDKIHHHHHHMAEELLPLKTVRNPRDLGGYTGFAGRKIKAGLLLRTGTVAAISEEDGNYLRARGVKTIIDLRSPQECRKRPDKKLAGIQNVNIPVNSRDQTKAEASLAELARQYGLDPLAGFRHMVESYRLMVTEEHAQAAFGQVLAYLAETEGGTIYHCSEGKDRTGLVTVFLLTVLGVDPETIRQDYLLSAPYLNVYRAKRDKEARENGESLVQRANLRSLGTVNNEYLDS”, the “soluble on expression in E. coli” value was “not soluble”.
Regarding “MLYEKFEYNINNLIGNFGLSKIAIAVSGGSDSISLLYLANIWARKNNIELFVISVDHNLRPQSKQENYYIHTISSNLNRKYYNLSFDHQNNFSNLQERAREGRYDLMTNLCLELDVLVLLTAHHEDDYVENFCLRLERNSGIFGLSSSNIHWYNNIQIIRPLYNIPKSELVEYLVNHKIKWFEDESNLSDKYRRNIIRQKLFKEENYIKAEISLQQLKTNKLIEDELKPALISAIAEAVKIFEYGFTFLDLVKFDKFLNEVKAQIINFLLIMISGQSRSARFYSIAHILKLISQDINFKNTVHGCVIKRIQNELLIYREFGKKLPKSKILLDKSVIWDNRFCITKNQKTPDCVITYLSLADYKAIKKQLDLKHLKNLSCKNHNAILFTLPIIKILEKVIAIPHISYYDNDVWNFEVSFAPNFVSRFTHFC”, the “soluble on expression in E. coli” value was “not soluble”.
“MGSDKIHHHHHHMKVLHLIDSGGLYGAERMLLALVAEQIQQGLEPMILSAGEQGIHQKPLEIEAEKLGLPLVVWRMTPGLNYPETRKICEWAEHWGVDLVHSHGYKFNILMSLFSRFSRKVPVVSTLHGYVHAPRFSRMWVYELLDRLAISRLDGVIMVGAAMKKELSTGLIRPRRLTTIRNGLAVDDTQRKATEPLPEALEEFFSTHEPVILGVGRLSKEKGFSHLVDSFREIKQSAPKAGLLIVGDGMLRKDLEDQVARLGLGSDVCLPGYCDNVPALMARSSALVISSSTEGLPITLLEAMAVRLPVVSTDVGEISFVLDEGDSGVLVKDPASELVDAIELVLNETEATHRKTEQAFHKVSGELSARSMAEQYLRVYNGVVAS”: the “soluble on expression in E. coli” value is “not soluble”.
